B1: N-terminally His-tagged, full-length Bik1 (natural protein, S. cerevisiae, UniProt P11709 1-440, looked up)
chain: MDRYQRKIGCFIQIPNLGRGQLKYVGPVDTKAGMFAGVDLLANIGKNDGSFMGKKYFQTEYPQSGLFIQLQKVASLIEKASISQTSRRTTMEPLSIPKNRSIVRLTNQFSPMDDPKSPTPMRSFRITSRHSGNQQSMDQEASDHHQQQEFGYDNREDRMEVDSILSSDRKANHNTTSDWKPDNGHMNDLNSSEVTIELREAQLTIEKLQRKQLHYKRLLDDQRMVLEEVQPTFDRYEATIQEREKEIDHLKQQLELERRQQAKQKQFFDAENEQLLAVVSQLHEEIKENEERNLSHNQPTGANEDVELLKKQLEQLRNIEDQFELHKTKWAKEREQLKMHNDSLSKEYQNLSKELFLTKPQDSSSEEVASLTKKLEEANEKIKQLEQAQAQTAVESLPIFDPPAPVDTTAGRQQWCEHCDTMGHNTAECPHHNPDNQQFF
notes: Bik1, S. cerevisiae, UniProt P11709, full length (domains described over residues 1-440); Vector PSPCm2: N-terminal 6xHis-tag followed by a PreScission cleavage site; also called Bik1 FL; FL; source: E. coli BL21-CodonPlus (DE3)-RIPL, purified (IMAC, SEC); not shown: His6, N-terminal, kept
B2: Bik1 ΔQQFF (domain or fragment, S. cerevisiae, UniProt P11709 1-436, looked up)
chain: MDRYQRKIGCFIQIPNLGRGQLKYVGPVDTKAGMFAGVDLLANIGKNDGSFMGKKYFQTEYPQSGLFIQLQKVASLIEKASISQTSRRTTMEPLSIPKNRSIVRLTNQFSPMDDPKSPTPMRSFRITSRHSGNQQSMDQEASDHHQQQEFGYDNREDRMEVDSILSSDRKANHNTTSDWKPDNGHMNDLNSSEVTIELREAQLTIEKLQRKQLHYKRLLDDQRMVLEEVQPTFDRYEATIQEREKEIDHLKQQLELERRQQAKQKQFFDAENEQLLAVVSQLHEEIKENEERNLSHNQPTGANEDVELLKKQLEQLRNIEDQFELHKTKWAKEREQLKMHNDSLSKEYQNLSKELFLTKPQDSSSEEVASLTKKLEEANEKIKQLEQAQAQTAVESLPIFDPPAPVDTTAGRQQWCEHCDTMGHNTAECPHHNPDN
notes: Bik1, S. cerevisiae, UniProt P11709, lacking the C-terminal EEY/F-like motif (peptide Gln-Gln-Phe-Phe); N-terminal 6xHis-tag followed by a PreScission site, tag retained; source: E. coli BL21-CodonPlus (DE3)-RIPL, purified (IMAC, SEC); not shown: His6, N-terminal, kept

Molecular target: the molecule itself
Test: SEC-SAXS; Shodex KW-404 column in line with SAXS; 20 mM Tris-HCl, pH 7.5, 500 mM NaCl, 2% glycerol, 1 mM DTT; injected at 4, 6 and 8 mg/ml; ab initio envelopes (DAMMIF)

Protein	stoichiometry N	binding result
B1	2	
B2		binds

— article PMC11782662, “Phase separation of a microtubule plus-end tracking protein into a fluid fractal network” (Nature Communications, 2025)
